Laboratory results reported in the supplement of paper PMC5998384.

Assays:
HeLa Kyoto [1] = experiment: solubility in G1/S (NP-40 vs SDS abundance) (log2 ratio); higher = more soluble; conditions: cell cycle stage: G1/S
HeLa Kyoto [2] = experiment: solubility change mitosis vs G1/S (difference of NP-40 vs SDS log2 ratios) (log2 ratio difference); higher = more soluble in mitosis
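Throughout, for solubility change mitosis vs G1/S (difference of NP-40 vs SDS log2 ratios): synchronized HeLa Kyoto cells (double thymidine block for G1/S, nocodazole release for mitosis), protein amounts in NP-40 versus SDS lysates quantified by mass spectrometry, three biological replicates.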
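Throughout, for solubility in G1/S (NP-40 vs SDS abundance): HeLa Kyoto cells arrested at G1/S by double thymidine block, proteins quantified by TMT10plex mass spectrometry in mild NP-40 versus SDS extracts, three biological replicates.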

MSHGPKQPGAAAAPAGGKAPGQHGGFVVTVKQERGEGPRAGEKGSHEEEPVKKRGWPKGKKRKKILPNGPKAPVTGYVRFLNERREQIRTRHPDLPFPEITKMLGAEWSKLQPTEKQRYLDEAEREKQQYMKELRAYQQSEAYKMCTEKIQEKKIKKEDSSSGLMNTLLNGHKGGDCDGFSTFDVPIFTEEFLDQNKAREAELRRLRKMNVAFEEQNAVLQRHTQSMSSARERLEQELALEERRTLALQQQLQAVRQALTASFASLPVPGTGETPTLGTLDFYMARLHGAIERDPAQHEKLIVRIKEILAQVASEHL [HMG20B]
solubility in G1/S (log2) (HeLa Kyoto [1]): 0.616 | solubility change mitosis (log2) (HeLa Kyoto [2]): -0.0403

MEGAAAREARGTETPRASAPPPAPSEPPAAPRARPRLVFRTQLAHGSPTGKIEGFTNVRELYAKIAEAFGIAPTEILFCTLNSHKVDMQKLLGGQIGLEDFIFAHVRGETKEVEVTKTEDALGLTITDNGAGYAFIKRIKEGSIINRIEAVCVGDSIEAINDHSIVGCRHYEVAKMLRELPKSQPFTLRLVQPKRAFDMIGQRSRSSKCPVEAKVTSGRETLRLRSGGAATVEEAPSEFEEEASRKVDDLLESYMGIRDPELASTMVETSKKTASAQEFARCLDSVLGEFAFPDEFVVEVWAAIGEAREACG [GIPC3]
solubility in G1/S (log2) (HeLa Kyoto [1]): 0.0786 | solubility change mitosis (log2) (HeLa Kyoto [2]): -0.0196

MAGPQMGGSAEDHPPRKRHAAEKQKKKTVIYTKCFEFESATQRPIDRQRYDENEDLSDVEEIVSVRGFSLEEKLRSQLYQGDFVHAMEGKDFNYEYVQREALRVPLIFREKDGLGIKMPDPDFTVRDVKLLVGSRRLVDVMDVNTQKGTEMSMSQFVRYYETPEAQRDKLYNVISLEFSHTKLEHLVKRPTVVDLVDWVDNMWPQHLKEKQTEATNAIAEMKYPKVKKYCLMSVKGCFTDFHIDFGGTSVWYHVFRGGKIFWLIPPTLHNLALYEEWVLSGKQSDIFLGDRVERCQRIELKQGYTFFIPSGWIHAVYTPVDSLVFGGNILHSFNVPMQLRIYEIEDRTRVQPKFRYPFYYEMCWYVLERYVYCVTQRSHLTQEYQRESMLIDAPRKPSIDGFSSDSWLEMEEEACDQQPQEEEEKDEEGEGRDRAPKPPTDGSTSPTSTPSEDQEALGKKPKAPALRFLKRTLSNESEESVKSTTLAVDYPKTPTGSPATEVSAKWTHLTEFELKGLKALVEKLESLPENKKCVPEGIEDPQALLEGVKNVLKEHADDDPSLAITGVPVVTWPKKTPKNRAVGRPKGKLGPASAVKLAANRTTAGARRRRTRCRKCEACLRTECGECHFCKDMKKFGGPGRMKQSCIMRQCIAPVLPHTAVCLVCGEAGKEDTVEEEEGKFNLMLMECSICNEIIHPGCLKIKESEGVVNDELPNCWECPKCNHAGKTGKQKRGPGFKYASNLPGSLLKEQKMNRDNKEGQEPAKRRSECEEAPRRRSDEHSKKVPPDGLLRRKSDDVHLRKKRKYEKPQELSGRKRASSLQTSPGSSSHLSPRPPLGSSLSPWWRSSLTYFQQQLKPGKEDKLFRKKRRSWKNAEDRMALANKPLRRFKQEPEDELPEAPPKTRESDHSRSSSPTAGPSTEGAEGPEEKKKVKMRRKRRLPNKELSRELSKELNHEIQRTENSLANENQQPIKSEPESEGEEPKRPPGICERPHRFSKGLNGTPRELRHQLGPSLRSPPRVISRPPPSVSPPKCIQMERHVIRPPPISPPPDSLPLDDGAAHVMHREVWMAVFSYLSHQDLCVCMRVCRTWNRWCCDKRLWTRIDLNHCKSITPLMLSGIIRRQPVSLDLSWTNISKKQLSWLINRLPGLRDLVLSGCSWIAVSALCSSSCPLLRTLDVQWVEGLKDAQMRDLLSPPTDNRPGQMDNRSKLRNIVELRLAGLDITDASLRLIIRHMPLLSKLHLSYCNHVTDQSINLLTAVGTTTRDSLTEINLSDCNKVTDQCLSFFKRCGNICHIDLRYCKQVTKEGCEQFIAEMSVSVQFGQVEEKLLQKLS [KDM2B]
solubility in G1/S (log2) (HeLa Kyoto [1]): -0.295 | solubility change mitosis (log2) (HeLa Kyoto [2]): 0.226

MAKSNGENGPRAPAAGESLSGTRESLAQGPDAATTDELSSLGSDSEANGFAERRIDKFGFIVGSQGAEGALEEVPLEVLRQRESKWLDMLNNWDKWMAKKHKKIRLRCQKGIPPSLRGRAWQYLSGGKVKLQQNPGKFDELDMSPGDPKWLDVIERDLHRQFPFHEMFVSRGGHGQQDLFRVLKAYTLYRPEEGYCQAQAPIAAVLLMHMPAEQAFWCLVQICEKYLPGYYSEKLEAIQLDGEILFSLLQKVSPVAHKHLSRQKIDPLLYMTEWFMCAFSRTLPWSSVLRVWDMFFCEGVKIIFRVGLVLLKHALGSPEKVKACQGQYETIERLRSLSPKIMQEAFLVQEVVELPVTERQIEREHLIQLRRWQETRGELQCRSPPRLHGAKAILDAEPGPRPALQPSPSIRLPLDAPLPGSKAKPKPPKQAQKEQRKQMKGRGQLEKPPAPNQAMVVAAAGDACPPQHVPPKDSAPKDSAPQDLAPQVSAHHRSQESLTSQESEDTYL [TBC1D10A]
solubility in G1/S (log2) (HeLa Kyoto [1]): 0.438 | solubility change mitosis (log2) (HeLa Kyoto [2]): -0.147

MAEAATPGTTATTSGAGAAAATAAAASPTPIPTVTAPSLGAGGGGGGSDGSGGGWTKQVTCRYFMHGVCKEGDNCRYSHDLSDSPYSVVCKYFQRGYCIYGDRCRYEHSKPLKQEEATATELTTKSSLAASSSLSSIVGPLVEMNTGEAESRNSNFATVGAGSEDWVNAIEFVPGQPYCGRTAPSCTEAPLQGSVTKEESEKEQTAVETKKQLCPYAAVGECRYGENCVYLHGDSCDMCGLQVLHPMDAAQRSQHIKSCIEAHEKDMELSFAVQRSKDMVCGICMEVVYEKANPSERRFGILSNCNHTYCLKCIRKWRSAKQFESKIIKSCPECRITSNFVIPSEYWVEEKEEKQKLILKYKEAMSNKACRYFDEGRGSCPFGGNCFYKHAYPDGRREEPQRQKVGTSSRYRAQRRNHFWELIEERENSNPFDNDEEEVVTFELGEMLLMLLAAGGDDELTDSEDEWDLFHDELEDFYDLDL [MKRN1]
solubility in G1/S (log2) (HeLa Kyoto [1]): 0.102 | solubility change mitosis (log2) (HeLa Kyoto [2]): -0.322

MASSLLAGERLVRALGPGGELEPERLPRKLRAELEAALGKKHKGGDSSSGPQRLVSFRLIRDLHQHLRERDSKLYLHELLEGSEIYLPEVVKPPRNPELVARLEKIKIQLANEEYKRITRNVTCQDTRHGGTLSDLGKQVRSLKALVITIFNFIVTVVAAFVCTYLGSQYIFTEMASRVLAALIVASVVGLAELYVMVRAMEGELGEL [TMEM199]
solubility in G1/S (log2) (HeLa Kyoto [1]): -0.349 | solubility change mitosis (log2) (HeLa Kyoto [2]): -0.0986

MERLRDVRERLQAWERAFRRQRGRRPSQDDVEAAPEETRALYREYRTLKRTTGQAGGGLRSSESLPAAAEEAPEPRCWGPHLNRAATKSPQSTPGRSRQGSVPDYGQRLKANLKGTLQAGPALGRRPWPLGRASSKASTPKPPGTGPVPSFAEKVSDEPPQLPEPQPRPGRLQHLQASLSQRLGSLDPGWLQRCHSEVPDFLGAPKACRPDLGSEESQLLIPGESAVLGPGAGSQGPEASAFQEVSIRVGSPQPSSSGGEKRRWNEEPWESPAQVQQESSQAGPPSEGAGAVAVEEDPPGEPVQAQPPQPCSSPSNPRYHGLSPSSQARAGKAEGTAPLHIFPRLARHDRGNYVRLNMKQKHYVRGRALRSRLLRKQAWKQKWRKKGECFGGGGATVTTKESCFLNEQFDHWAAQCPRPASEEDTDAVGPEPLVPSPQPVPEVPSLDPTVLPLYSLGPSGQLAETPAEVFQALEQLGHQAFRPGQERAVMRILSGISTLLVLPTGAGKSLCYQLPALLYSRRSPCLTLVVSPLLSLMDDQVSGLPPCLKAACIHSGMTRKQRESVLQKIRAAQVHVLMLTPEALVGAGGLPPAAQLPPVAFACIDEAHCLSQWSHNFRPCYLRVCKVLRERMGVHCFLGLTATATRRTASDVAQHLAVAEEPDLHGPAPVPTNLHLSVSMDRDTDQALLTLLQGKRFQNLDSIIIYCNRREDTERIAALLRTCLHAAWVPGSGGRAPKTTAEAYHAGMCSRERRRVQRAFMQGQLRVVVATVAFGMGLDRPDVRAVLHLGLPPSFESYVQAVGRAGRDGQPAHCHLFLQPQGEDLRELRRHVHADSTDFLAVKRLVQRVFPACTCTCTRPPSEQEGAVGGERPVPKYPPQEAEQLSHQAAPGPRRVCMGHERALPIQLTVQALDMPEEAIETLLCYLELHPHHWLELLATTYTHCRLNCPGGPAQLQALAHRCPPLAVCLAQQLPEDPGQGSSSVEFDMVKLVDSMGWELASVRRALCQLQWDHEPRTGVRRGTGVLVEFSELAFHLRSPGDLTAEEKDQICDFLYGRVQARERQALARLRRTFQAFHSVAFPSCGPCLEQQDEERSTRLKDLLGRYFEEEEGQEPGGMEDAQGPEPGQARLQDWEDQVRCDIRQFLSLRPEEKFSSRAVARIFHGIGSPCYPAQVYGQDRRFWRKYLHLSFHALVGLATEELLQVAR [RECQL4]
solubility in G1/S (log2) (HeLa Kyoto [1]): -0.103 | solubility change mitosis (log2) (HeLa Kyoto [2]): 0.0659

MMPFGKISQQLCGVKKLPWSCDSRYFWGWLNAVFNKVDYDRIRDVGPDRAASEWLLRCGAMVRYHGQERWQKDYNHLPTGPLDKYKIQAIDATDSCIMSIGFDHMEGLEHVEKIRLCKCHYIEDDCLLRLSQLENLQKTILEMEIISCGNITDKGIIALRHLRNLKYLLLSDLPGVREKENLVQAFKTALPSLELKLQLK [ATP5S]
solubility in G1/S (log2) (HeLa Kyoto [1]): -0.164 | solubility change mitosis (log2) (HeLa Kyoto [2]): -0.136

MSKGRAEAAAGAAGILLRYLQEQNRPYSSQDVFGNLQREHGLGKAVVVKTLEQLAQQGKIKEKMYGKQKIYFADQDQFDMVSDADLQVLDGKIVALTAKVQSLQQSCRYMEAELKELSSALTTPEMQKEIQELKKECAGYRERLKNIKAATNHVTPEEKEQVYRERQKYCKEWRKRKRMATELSDAILEGYPKSKKQFFEEVGIETDEDYNVTLPDP [PSMC3IP]
solubility in G1/S (log2) (HeLa Kyoto [1]): 0.125 | solubility change mitosis (log2) (HeLa Kyoto [2]): 0.072

MAENLKGCSVCCKSSWNQLQDLCRLAKLSCPALGISKRNLYDFEVEYLCDYKKIREQEYYLVKWRGYPDSESTWEPRQNLKCVRILKQFHKDLERELLRRHHRSKTPRHLDPSLANYLVQKAKQRRALRRWEQELNAKRSHLGRITVENEVDLDGPPRAFVYINEYRVGEGITLNQVAVGCECQDCLWAPTGGCCPGASLHKFAYNDQGQVRLRAGLPIYECNSRCRCGYDCPNRVVQKGIRYDLCIFRTDDGRGWGVRTLEKIRKNSFVMEYVGEIITSEEAERRGQIYDRQGATYLFDLDYVEDVYTVDAAYYGNISHFVNHSCDPNLQVYNVFIDNLDERLPRIAFFATRTIRAGEELTFDYNMQVDPVDMESTRMDSNFGLAGLPGSPKKRVRIECKCGTESCRKYLF [SUV39H1]
solubility in G1/S (log2) (HeLa Kyoto [1]): -0.773 | solubility change mitosis (log2) (HeLa Kyoto [2]): -0.415

MASTRSIELEHFEERDKRPRPGSRRGAPSSSGGSSSSGPKGNGLIPSPAHSAHCSFYRTRTLQALSSEKKAKKARFYRNGDRYFKGLVFAISSDRFRSFDALLIELTRSLSDNVNLPQGVRTIYTIDGSRKVTSLDELLEGESYVCASNEPFRKVDYTKNINPNWSVNIKGGTSRALAAASSVKSEVKESKDFIKPKLVTVIRSGVKPRKAVRILLNKKTAHSFEQVLTDITEAIKLDSGVVKRLCTLDGKQVTCLQDFFGDDDVFIACGPEKFRYAQDDFVLDHSECRVLKSSYSRSSAVKYSGSKSPGPSRRSKSPASVNGTPSSQLSTPKSTKSSSSSPTSPGSFRGLKQISAHGRSSSNVNGGPELDRCISPEGVNGNRCSESSTLLEKYKIGKVIGDGNFAVVKECIDRSTGKEFALKIIDKAKCCGKEHLIENEVSILRRVKHPNIIMLVEEMETATELFLVMELVKGGDLFDAITSSTKYTERDGSAMVYNLANALRYLHGLSIVHRDIKPENLLVCEYPDGTKSLKLGDFGLATVVEGPLYTVCGTPTYVAPEIIAETGYGLKVDIWAAGVITYILLCGFPPFRSENNLQEDLFDQILAGKLEFPAPYWDNITDSAKELISQMLQVNVEARCTAGQILSHPWVSDDASQENNMQAEVTGKLKQHFNNALPKQNSTTTGVSVIMNTALDKEGQIFCSKHCQDSGRPGMEPISPVPPSVEEIPVPGEAVPAPTPPESPTPHPPPAAPGGERAGTWRRHRD [DCLK2]
solubility in G1/S (log2) (HeLa Kyoto [1]): -0.0668 | solubility change mitosis (log2) (HeLa Kyoto [2]): -0.0347
